From the DeepSol protein solubility set

Assay: soluble on expression in E. coli; label from the status in PepcDB or PDB records

Sequence | soluble on expression in E. coli
MSLSSDSGNSSGKTTIEWWNITTTEPAKKLWAQRAKEFEAAHPDVKIKIVTLENEAYKSKMTAQTASGKLPDIYHTWGGGVLEQQIDAGLVEDLTDRVSSWTDTYVPAALAAYRFDSRTYAVPFDIGAVGFWYNKALFKQAGIDTPPTTWSGFLDAVRSLKSAGITPIALAGKEKWPGMYYWAYLSMRVAGLDAMHKAATDADFTGDGFVKAGQHLKDLVALQPFQKGFLGAGYSTPTGEAAAMGNGKAAMELMGQWAPVVEKDAGKGLGKDLGFFSFPAVEGGKGALTEVFGGGGGHAVRKGAPEAAVEFLKFFGEKEFAGKLVKETGLIPVSKDARGALTDPNLTAVSDALNAATGFQLYLDQAYAPAVGQEINDSVAALVAGSKSPQQVTRSVTQVAKSEKSEGHHHHHH | not soluble
MGSDKIHHHHHHMRLEELVNNNYNKLNENDLHIWKYICCNKRECCTISIDELAKKCNISRTTISRFTQKLSLEGFGEFKVRLKLELGVSNNFKSSSVEDVYQDYYKTIKDMKEKDFLEICRMIYGAKHLFVYGTGAVQIAAANELKRHFISVNKFFVTVHGEAEMNMVLETATDEDLIVIISLSGEKKSAVEYLKKVKVKNIPSISITKLSDNSIARLCDENLYIITRNIKIEGVVTCENVGQYFILIEILFLKYITYLGQLKKEDTIS | not soluble
YSGLHLCESHLCRAVTKRVRRRIREDGLVSDDATVEDPETWVIGLSGGKDSVVLTQILHDTFAEDPRIELVALSIHEGIEGYRDASLEACEELTDDLGIEHVTVSYAEEFGVQMDDVVEDDPEGMAACAYCGVFRRDLLSKYAEELDADKLLTGHNLDDEAETALMNFLEGDISQIAKHFEASLGPFDSSADAPTEQTREAQDHHIPRAKPLRDIPEKEVALYARFEDLPAHITEC | not soluble
MPRPKILKRATVQPSAAVPVKKSTPEKEGSRQKKTNGKENASRNLQSNLEEDLEQLGFEDETVSMAQSAIENYFMQGKSASERMNNAKSRRGRRAGNGNTEEIEEDDEISNAITDFTKCDLPGLRNYITKKDNTEFEKRLEHLADNDFGKWKLYLAAGFNILLHGVGSKRDVLTEFENELSDYTYMRVDARKDGLNVKVLLGAINENMKLNCNVKRGQSTISWARSIRRKMNSQQLILIIDNIEAPDWRSDQEAFCELLENRDSVKLIATVDHIYSTFIWNSRQLSSLSFVHITINTFEIPLQELMTGDSRLLGLDARSNQSSHTMSSLDVFWKSLAVNSQKLFRLFFQMYFDTKKPVKFWDLFNAAKDDFIASTDAALRTQLVEFKDHRVLKWTRGDDGNDQLSGIVELRLVTEFLESKNMPLDEKKDE | not soluble
MGSDKIHHHHHHMAAVAHVKIDAAGEKRVLYLVDKSGFGGVQTIAYTLMRHGVDERIGMDFFFLRNINDRFGMEDVREPNVFYSRATHRYSLRPFVEILRFIREKKVSILHLNGNKSIILGLVIKKLFQPTIKIIAHEHGGVFDYSRWYAAFLKSFRNSFDLFITISNYRKHFLVERCLVAPSAIRVIDNFVDPARLATASASACGHTDRCDSEGDKPFVIGYVGGLSRIKGCDVLIRALPPLRERLGNFRVMIAGDGPARAELEELVAALGLGDIVSFLGFVDPPGIAYAQFDMMVIPSRSEEGPICLYEAWMMGLPVVASNAPVLNERIRDGETGILFQSDEPCDLAEKIYSVCRNPDVAAHIRAGGSCEAARHTVERYRGDLRDVYLSL | not soluble
MEYTSIADTGIEASRIGLGTWAIGGTMWGGTDEKTSIETIRAALDQGITLIDTAPAYGFGQSEEIVGKAIKEYMKRDQVILATKTALDWKNNQLFRHANRARIVEEVENSLKRLQTDYIDLYQVHWPDPLVPIEETAEVMKELYDAGKIRAIGVSNFSIEQMDTFRAVAPLHTIQPPYNLFEREMEESVLPYAKDNKITTLLYGSLCRGLLTGKMTEEYTFEGDDLRNHDPKFQKPRFKEYLSAVNQLDKLAKTRYGKSVIHLAVRWILDQPGADIALWGARKPGQLEALSEITGWTLNSEDQKDINTILENTISDPVGPEFMAPPTREEIPG | soluble
MSLKLFCFKAIIFPIVGGSFNNGTNVFQSTVIVISLDGFRADYLYRGFTPNLLSLAERNVHVPFLIPSFPSITFPNHYTIVTGLYPESHGIVSNNFFDPVTGKQFVNSMPECNKDPTWWDKGEPIWVNAERNNVRSAVHMWPGNEVENHGYRPTYSDGFNFDTTLREKKDRILEWLDLPDKDRPQLLLAYAPHVDMVGHAFGPDSPELNIIIQEVDIVIGELIEGLKKRNIDKHVNIIFLSDHGMAPTSDNRLIWLDNMFNLSAVAHRDAWPLGGFRGESDLDDEYIYESLVNYSRSSLPSAENWNVYSKKDIPSRWHYSNNERIAPVWMIPDVGWSLVSMLDHSPELEYEPLGVHGYDNLSPVMRALFIASGSSFKNFKGKKLAPFQNTEIYGILSHILDLPAQPNNGTYEGALPLRRNRNSTKEWLLKDIEQAYSKLIEGHHHHHH | not soluble
MSAYKQANRLIHEKSPYLLQHAYNPVDWYPWCDEAFEKAKRENKPIFLSIGYSTCHWCHVMESESFEDEEVAEILNKNFVSIKVDREERPDIDSIYMTACQALTGHGGWPLTIIMTPDKKPFFAGTYFPKKDRMGMPGLISILKSVHNTWVNEKDSLAKYSSKVVSVISESIDDDYYYSVDEITEDIFEDAFSQFKYDFDNIYGGFGNAPKFPMPHNLYFLLRYWHKAKEEYALVMVEKTLDSMYSGGIYDHIGFGFCRYSTDEKWLVPHFEKMLYDNALLAIAYLETYQATKNKKYADIAKEIFTYVLRDMTSPEGGFYSAEDADSEGEEGKFYIWSPTEIKEVLGESDGEKFCKYYNITEEGNFEGLNIPNLINSTIPDEDKEFVELCRKKLFDHREKRVHPHKDDKILTAWNGLMIAALAIGGRVLGIEKYTLAAEKASEFIFSKLVRPDGRLLARYRDGEAAFLAYLDDYAFLIWALIELYETTYKPMYLKKAMELTNDMIKYFWDNKKGGLFIYGSDSEQLITRPKEIYDGAIPSGNSVAALNFLRLSRLTGQQELEEKAHQMFALFGSKIDSMPQGYAFFLTAMLFSKSKSNEVVLVGSNEKDTQNMLSILSEDFRPFTTSILYSEEHKDLKELIPFIDNYTTIENKPTAYVCENFVCHEPITDGALLREKLNR | soluble
MSLDIVSHQKIRRFEAGTFQEIESSVATEYPLTIYVNDQELVTIVCTPEYLEDLVVGFLTSEGIVRGPRDINSVDIIEATGHAKVSANFVNKFNAKYRGKRYITSCCGKSRENFYFQSDASLVNVKQNGNLQLTTDMIFRLMEKFEQNSATFHQTGGVHNAALCSSAEIIYSRMDIGRHNALDKIYGRALQDGTSTEDKAIIFSGRISSEILVKTAKLGCGIILSRSAPTELAINMAEELNITTVGFIRGDRLNVYSGFERITEGHHHHHH | soluble
MGSDKIHHHHHHMTRIVESLAEISDLYDAVFCDLWGCVHDGITAFDEAIEALRAFKAKGGTVLLLTNAPRPRASVATQLDDFGIPRDCWDVIATSGDSARAAMLSGAVGTKVWHIGEPEHAPFFAPMDLVADAVDVTRVPLDEAEGIVCTGPFDPKADPSELRPQFLLAKTRRLKLLCANPDIVVDRGESREWCAGALAKLYTEMGGESLYFGKPHPPIYDLARRRLVQMGKPTPDDRILAIGDGIVTDVPGGIGENIDTLFITGGLARDETGTDHQPDPAKLARFLTDAQLEPTYSVGMLR | not soluble
MDFHLRNKLNLPGNLPQPPNTNLNLPPNVPALLIQSSIKYSELEKFVRRGLHASGVFVIEDPTTTGVAQLKILSERWGDLPTAIDIQGRAQEYSLRYAAIFTLIDGNGEVVVPQQVIELSRDYRSPPVDATGTTTEREILVNELRRDMSASILRRIDSVIRSRLEKRELLEQAKPPSPATSGALEHHHHHH | not soluble
MASLAKNLKNVTPNVRRAVVTWDKAERIQRNEEIFKNSESVVHRLPEHYKTRYWETILSDKTPVHYRPPTSRFAHDSFKNVEIELEENPIIGIRTPEGDDGLWGGERVVKGWIESAPYTKKKILPRYWVPKLFFPALKNVVLYSEILDKYIKVTVTERAMRLIDEHFGLDYYILESKEIDLDSKFANSLKREMLLTLTTESYYEENDEKKAYIKEKYADFVIPEREAEWIGLELNEAARKQQDMEDSTAPEPLKYKFEQSLLERLRDGTDEISQELENPEAPMKTESKFGDKMFGKYLNPIGKKLRSATN | not soluble
MRHILSVLIENESGAMSRVVGLFSARDYNIDSLAVAPTEDKTLSRMTIVTHGDEQVIEQITKQLNKLIEVIKVVDLNESRFVERELMLVKVRAAGKDRDEFLRLTEIYRGSIIDVTDRSYTIEITGSTDKLDSFLETVGRAQILETVRTGAAGIGRGERILKI | not soluble
MSLAHIRTRETYGTRRLQTELAENGIIVGRDRLARLRKELRLRCKQKRKFRATTNPNHNLPVAPNLLNQTFAPTAPNQVWVADLTYVATQEGWLYLAGIKDVYTCEIVGYAMGERMTKELTGKALFMALRSQRPPAGLIHHSDRGSQYCAYDYRVIQEQSGLKTSMSRKGNCYDNAPMESFWGTLKNESLSHYRFNNRDEAISVIREYIEIFYNRQRRHSRLGNISPAAFRENIIRWLLKKRTNGSVRYCQYTSKVAMIYIEQLELIHKSGDVLYPVKITRKSSGKTAFHLVPFGLNKTHDLLEVEDASEAIRLVIDERHSIRCSTLTATITNKKGKRIKRTGIYSIKGVNIKEYNVREGHHHHHH | not soluble
MGSDKIHHHHHHAQTPQDSVRFIGYLPVRHTDPTKWITRYQSEIDRYQTENQMLKDTSCDVLFLGSSSINLWDNIYRDMAPLKILRRSYGGAALRDMLYNYDVIARGYHPRSIVIYVENDLAGTPEDLTVGETFDFFRLLTNRLQRDYPDIPIFILSYKPSLARKEMIPKHEIINALLQEYASKRGGLTYIDVASCLYDNNGKLRKDIFKQDGLHMNQNGYDLWTAILKPKILESIR | not soluble
MSLRLEGVVVPLITPFLEDYSIDKEGLKWLVSYLSENGVNGIFVNSSVGEFASLTLDEMKLVTKIALDSRKSYSTLIFAGASTNFTEETIKLAKDFKDMGVDAIVVMAPYFFKVREKELLDHFSMIAEKVDLPIIIYNIPLFTGIDIPISVYKMLVSQHSNIIGTKVTLDSLIFFKKLISEIREIRKDFSILTGFDEYLLPLLYMGGNGGVMGLANAIPKLHLKVYESWKNGNLSDANKYWRNVLNLTDIYDYCNSYTASIKLLLKVLNMPIKNVVRPPLSICEEESKIRGMIKDLSSFLTNSEGHHHHHH | soluble
MRFLDRFFKKKKKEEALWTKCPNCKSLLYVPDLESNLKVCPNCDYHFTLSALERIKYTLDEENPELLFEEILPADPLNFKDTKSYKDRIKKAQEETGLSEAIVITEGHIKGKRAILAVMDFNFIGGSMGSVVGERFFRACERAVETKTPLISFAASGGARMQEGILSLMQMAKTTFGVGLLKEANIPYISVLTNPTMGGVSASFAFLGDLILAEPKALIGFAGPRVIEQTIKQKLPEGFQTAEFLLEKGQIDMVVHRKELKDKLAYFLEVMYYAKRLEHHHHHH | not soluble
AWQVNTAYTAGQLVTYNGKTYKCLQPHTSLAGWEPSNVPALWQLQ | soluble
MKRALGVSVYPDHSDINQDKAYLKKASECGFTRIFMSMLEVTDGKEAVQKKFKELISYAKNLGFETILDVVPSIFDELEISYDDLTFFSELGADGIRLDTGFDGNKEAMLTFNPFGVAIELNMSNDVAYLDNILTYEANRPFLYGCHNFYPQAGTALPYDFFEKCSIRFKKEGIRTAAFISSQVGEIGPWDVNDGLPTLEMHRQLPVTVQAKHLFATNLIDDVVIGNAYASNEELEALGQLNRYQTELTIVFEEATSEIEKEIVTKNQHFRRGDITQQMIRSTEVRKKYKNEVNPPHDNQAMLQPGDVVVGNDAFGKYKNELQVVLEPHQDSRKNRVGRIIEEELVLLEFIKPWTKFRFIEK | not soluble
AHHHHHHGSVKHYSVKVITAKSRTRLGLQLADARINELFNMIQDKTLRRDPLLISRRLVPSWATLNSFMLYFGLILAKEEVSISCTLESAT | not soluble
